# Laboratory results taken from IntAct's records for PubMed 20956942.
# B1: Thyroid hormone receptor beta (Homo sapiens), P10828-1 (parent)
# chain: MTPNSMTENGLTAWDKPKHCPDREHDWKLVGMSEACLHRKSHSERRSTLKNEQSSPHLIQTTWTSSIFHLDHDDVNDQSVSSAQTFQTEEKKCKGYIPSYLDKDELCVVCGDKATGYHYRCITCEGCKGFFRRTIQKNLHPSYSCKYEGKCVIDKVTRNQCQECRFKKCIYVGMATDLVLDDSKRLAKRKLIEENREKRRREELQKSIGHKPEPTDEEWELIKTVTEAHVATNAQGSHWKQKRKFLPEDIGQAPIVNAPEGGKVDLEAFSHFTKIITPAITRVVDFAKKLPMFCELPCEDQIILLKGCCMEIMSLRAAVRYDPESETLTLNGEMAVTRGQLKNGGLGVVSDAIFDLGMSLSSFNLDDTEVALLQAVLLMSSDRPGLACVERIEKYQDSFLLAFEHYINYRKHHVTHFWPKLLMKVTDLRMIGACHASRFLHMKVECPTELFPPLFLEVFED
# Variants of: B1
# Conditions: with ncoa3_human NCOA3, Q9Y6Q9
row,Variant,effect of a mutation on the interaction
1,E457Q,decreasing interaction
2,K288I,disrupting interaction
3,P214R,increasing interaction
4,R243W,increasing interaction

# Variants of: B1
# Conditions: with ncor2_human NCOR2, Q9Y618
row,Variant,effect of a mutation on the interaction
1,P214R,decreasing interaction
2,A228G;H229G;T232A,decreasing interaction
3,R243W,increasing interaction
